Experimental data taken from patent US20050209147A1 (Stanford University, published 2005).

Biological target: Rho-kinase (ROCK), endogenous in Swiss 3T3 mouse fibroblasts (mouse)
Experiment: cell-based or functional assay

Binder | dose at which inhibition of LPA-induced stress fibers becomes significant [µM]
RQIKIWFQNRRMKWKKGIVFSKDQFPEVYVPTVFE [P1-RhoA 23-40 fusion domain (Penetratin-1 fused through a glycine to human RhoA amino acids 23-40)] | 10
RQIKIWFQNRRMKWKKGPDTDVILMCFSIDSPDSL [P1-RhoA 75-92 fusion domain (Penetratin-1 fused through a glycine to human RhoA amino acids 75-92)] | 10
